The results in this text go back to patent US20170306033A1 (Amgen, published 2017).

The target in assay [1] is T1, human PAC1 receptor (human, UniProt P41586 21-468).
T1 sequence: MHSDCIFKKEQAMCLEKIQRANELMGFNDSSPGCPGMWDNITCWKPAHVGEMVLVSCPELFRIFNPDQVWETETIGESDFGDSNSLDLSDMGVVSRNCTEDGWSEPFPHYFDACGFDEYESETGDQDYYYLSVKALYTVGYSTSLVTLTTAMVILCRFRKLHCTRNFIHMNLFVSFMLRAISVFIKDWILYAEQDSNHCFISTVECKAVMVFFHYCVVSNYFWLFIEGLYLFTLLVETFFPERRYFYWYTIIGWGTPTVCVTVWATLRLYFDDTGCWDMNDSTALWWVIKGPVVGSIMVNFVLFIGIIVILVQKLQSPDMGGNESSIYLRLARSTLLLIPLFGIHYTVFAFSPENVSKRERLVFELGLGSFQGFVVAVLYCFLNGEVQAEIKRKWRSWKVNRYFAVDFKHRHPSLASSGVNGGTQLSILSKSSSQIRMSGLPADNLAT
The assay can be described thus: cell-based or functional assay.

Assay [2] concerns the target human CGRP receptor (human, UniProt Q16602 23-461; O60894 27-148). Kind of assay: cell-based or functional assay.

Chain of human CGRP receptor (Q16602 23-461 limits assumed, chain 1 of 2): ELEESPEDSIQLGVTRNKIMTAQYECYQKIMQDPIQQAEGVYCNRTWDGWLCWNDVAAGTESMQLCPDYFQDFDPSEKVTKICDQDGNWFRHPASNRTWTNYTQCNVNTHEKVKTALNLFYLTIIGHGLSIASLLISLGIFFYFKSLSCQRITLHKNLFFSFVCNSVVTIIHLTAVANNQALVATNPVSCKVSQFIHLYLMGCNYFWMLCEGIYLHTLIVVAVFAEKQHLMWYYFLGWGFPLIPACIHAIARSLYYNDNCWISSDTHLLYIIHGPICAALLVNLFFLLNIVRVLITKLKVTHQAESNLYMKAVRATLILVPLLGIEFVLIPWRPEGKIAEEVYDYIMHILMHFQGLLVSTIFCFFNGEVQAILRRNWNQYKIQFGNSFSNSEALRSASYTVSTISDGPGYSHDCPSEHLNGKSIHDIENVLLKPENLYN
Chain of human CGRP receptor (O60894 27-148 limits assumed, chain 2 of 2): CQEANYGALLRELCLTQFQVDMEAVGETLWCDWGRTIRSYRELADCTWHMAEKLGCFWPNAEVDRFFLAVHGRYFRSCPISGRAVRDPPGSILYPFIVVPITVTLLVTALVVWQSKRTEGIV

B1: iPS:326634 (bispecific antibody, human IgG2, kappa, lambda)
light 1: DIQLTQSPSFLSASVGDRVTITCRASQSIGRSLHWYQQKPGKAPKLLIKYASQSLSGVPSRFSGSGSGTEFTLTISSLQPEDFATYYCHQSSRLPFTFGPGTKVDIKRTVAAPSVFIFPPSDEQLKSGTASVVCLLNNFYPREAKVQWKVDNALQSGNSQESVTEQDSKDSTYSLESTLTLSKADYEKHKVYACEVTHQGLSSPVTKSFNRGEC
heavy 1: QVQLVESGAEVVKPGASVKVSCKASGFTFSRFAMHWVRQAPGQGLEWMGVISYDGGNKYYAESVKGRVTMTRDTSTSTLYMELSSLRSEDTAVYYCARGYDVLTGYPDYWGQGTLVTVSSASTKGPSVFPLAPCSRSTSESTAALGCLVKDYFPEPVTVSWNSGALTSGVHTFPAVLQSSGLYSLKSVVTVPSSNFGTQTYTCNVDHKPSNTKVDKTVERKCCVECPPCPAPPVAGPSVFLFPPKPKDTLMISRTPEVTCVVVDVSHEDPEVQFNWYVDGVEVHNAKTKPREEQFNSTFRVVSVLTVVHQDWLNGKEYKCKVSNKGLPAPIEKTISKTKGQPREPQVYTLPPSREEMTKNQVSLTCLVDGFYPSDIAVEWESNGQPENNYDTTPPMLDSDGSFFLYSDLTVDKSRWQQGNVFSCSVMHEALHNHYTQKSLSLSPGK
light 2: not shown
heavy 2: not shown
As for B1, the “% inhibition of human PAC1” value in assay [1] is 43%. For the same molecule, in assay [2], the “% inhibition of human CGRPR” value worked out at 66%.

B2: iPS:327706 (bispecific antibody, human IgG1, kappa, lambda, N297G)
light 1: EIVLTQSPATLSLSPGERATLSCRASQSVGRSLHWYQQKPGQAPRLLIKYASQSLSGIPARFSGSGSGTDFTLTISSLEPEDFAVYYCHQSSRLPFTFGPGTKVDIKRTVAAPSVFIFPPSDEQLKSGTASVVCLLNNFYPREAKVQWKVDNALQSGNSQESVTEQDSKDSTYSLESTLTLSKADYEKHKVYACEVTHQGLSSPVTKSFNRGEC
heavy 1: not shown
light 2: QSVLTQPPSVSAAPGQKVTISCSGSSSNIGNNYVSWYQQLPGTAPKLLIYDNNKRPSGIPDRFSGSKSGTSATLGITGLQTGDEADYYCGTWDSRLSAVVFGGGTKLTVLGQPKANPTVTLFPPSSEELQANKATLVCLISDFYPGAVTVAWKADGSPVKAGVETTKPSKQSNNKYAAKSYLSLTPEQWKSHRSYSCQVTHEGSTVEKTVAPTECS
heavy 2: QVQLVESGGGVVQPGRSLRLSCAASGFTFSSFGMHWVRQAPGKGLEWVAVISFDGSIKYSVDSVKGRFTISRDNSKNTLFLQMNSLRAEDTAVYYCARDRLNYYDSSGYYHYKYYGMAVWGQGTTVTVSSASTKGPSVFPLAPSSKSTSGGTAALGCLVKDYFPEPVTVSWNSGALTSGVHTFPAVLQSSGLYSLESVVTVPSSSLGTQTYICNVNHKPSNTKVDKKVEPKSCDKTHTCPPCPAPELLGGPSVFLFPPKPKDTLMISRTPEVTCVVVDVSHEDPEVKFNWYVDGVEVHNAKTKPCEEQYGSTYRCVSVLTVLHQDWLNGKEYKCKVSNKALPAPIEKTISKAKGQPREPQVYTLPPSRKEMTKNQVSLTCLVKGFYPSDIAVEWESNGQPENNYKTTPPVLKSDGSFFLYSKLTVDKSRWQQGNVFSCSVMHEALHNHYTQKSLSLSPGK
Consider B2, for which the “% inhibition of human PAC1” value in assay [1] turned out to be 103%. Also, the “% inhibition of human CGRPR” value in assay [2] stood at 87%.

B3: iPS:327697 (bispecific antibody, human IgG1, kappa, lambda, N297G)
light 1: DIQLTQSPSFLSASVGDRVTITCRASQSIGRSLHWYQQKPGKAPKLLIKYASQSLSGVPSRFSGSGSGTEFTLTISSLQPEDFATYYCHQSSRLPFTFGEGTKVDIKRTVAAPSVFIFPPSDEQLKSGTASVVCLLNNFYPREAKVQWKVDNALQSGNSQESVTEQDSKDSTYSLESTLTLSKADYEKHKVYACEVTHQGLSSPVTKSFNRGEC
heavy 1: not shown
light 2: QSVLTQPPSVSAAPGQKVTISCSGSSSNIGNNYVSWYQQLPGTAPKLLIYDNNKRPSGIPDRFSGSKSGTSTTLGITGLQTGDEADYYCGTWDSRLSAVVFGKGTKLTVLGQPKANPTVTLFPPSSEELQANKATLVCLISDFYPGAVTVAWKADGSPVKAGVETTKPSKQSNNKYAAKSYLSLTPEQWKSHRSYSCQVTHEGSTVEKTVAPTECS
heavy 2: QVQLVESGGGVVQPGRSLRLSCAASGFTFSSFGMHWVRQAPGKELEWVAVISFDGSIKYSVDSVKGRFTISRDNSKNTLFLQMNSLRAEDTAVYYCARDRLNYYESSGYYHYKYYGMAVWGQGTTVTVSSASTKGPSVFPLAPSSKSTSGGTAALGCLVKDYFPEPVTVSWNSGALTSGVHTFPAVLQSSGLYSLESVVTVPSSSLGTQTYICNVNHKPSNTKVDKKVEPKSCDKTHTCPPCPAPELLGGPSVFLFPPKPKDTLMISRTPEVTCVVVDVSHEDPEVKFNWYVDGVEVHNAKTKPCEEQYGSTYRCVSVLTVLHQDWLNGKEYKCKVSNKALPAPIEKTISKAKGQPREPQVYTLPPSRKEMTKNQVSLTCLVKGFYPSDIAVEWESNGQPENNYKTTPPVLKSDGSFFLYSKLTVDKSRWQQGNVFSCSVMHEALHNHYTQKSLSLSPGK
On to B3, for which, in assay [1], the “% inhibition of human PAC1” value was found to be 39%. Also, the “% inhibition of human CGRPR” value in assay [2] is 88%.

B4: iPS:327708 (bispecific antibody, human IgG1, kappa, lambda, N297G)
light 1: not shown
heavy 1: not shown
light 2: QSVLTQPPSVSAAPGQKVTISCSGSSSNIGNNYVSWYQQLPGTAPKLLIYDNNKRPSGIPDRFSGSKSGTSATLGITGLQTGDEADYYCGTWDSRLSAVVFGKGTKLTVLGQPKANPTVTLFPPSSEELQANKATLVCLISDFYPGAVTVAWKADGSPVKAGVETTKPSKQSNNKYAAKSYLSLTPEQWKSHRSYSCQVTHEGSTVEKTVAPTECS
heavy 2: QVQLVESGGGVVQPGRSLRLSCAASGFTFSSFGMHWVRQAPGKELEWVAVISFDGSIKYSVDSVKGRFTISRDNSKNTLFLQMNSLRAEDTAVYYCARDRLNYYDSSGYYHYKYYGMAVWGQGTTVTVSSASTKGPSVFPLAPSSKSTSGGTAALGCLVKDYFPEPVTVSWNSGALTSGVHTFPAVLQSSGLYSLESVVTVPSSSLGTQTYICNVNHKPSNTKVDKKVEPKSCDKTHTCPPCPAPELLGGPSVFLFPPKPKDTLMISRTPEVTCVVVDVSHEDPEVKFNWYVDGVEVHNAKTKPCEEQYGSTYRCVSVLTVLHQDWLNGKEYKCKVSNKALPAPIEKTISKAKGQPREPQVYTLPPSRKEMTKNQVSLTCLVKGFYPSDIAVEWESNGQPENNYKTTPPVLKSDGSFFLYSKLTVDKSRWQQGNVFSCSVMHEALHNHYTQKSLSLSPGK
For the molecule B4, the “% inhibition of human PAC1” value in assay [1] stood at 18%. The “% inhibition of human CGRPR” value in assay [2] stood at 79%.

B5: iPS:327707 (bispecific antibody, human IgG1, kappa, lambda, N297G)
light 1: DIQMTQSPSSLSASVGDRITITCRASQSISRYLNWYQQKPGKAPKLLIYAASSLQSGIPSRFSGSGSGTDFTLTINSLQPEDFATYFCQQSYSPPFTFGEGTKVDIKRTVAAPSVFIFPPSDEQLKSGTASVVCLLNNFYPREAKVQWKVDNALQSGNSQESVTEQDSKDSTYSLESTLTLSKADYEKHKVYACEVTHQGLSSPVTKSFNRGEC
heavy 1: not shown
light 2: QSVLTQPPSVSAAPGQKVTISCSGSSSNIGNNYVSWYQQLPGTAPKLLIYDNNKRPSGIPDRFSGSKSGTSATLGITGLQTGDEADYYCGTWDSRLSAVVFGKGTKLTVLGQPKANPTVTLFPPSSEELQANKATLVCLISDFYPGAVTVAWKADGSPVKAGVETTKPSKQSNNKYAAKSYLSLTPEQWKSHRSYSCQVTHEGSTVEKTVAPTECS
heavy 2: QVQLVESGGGVVQPGRSLRLSCAASGFTFSSFGMHWVRQAPGKELEWVAVISFDGSIKYSVDSVKGRFTISRDNSKNTLFLQMNSLRAEDTAVYYCARDRLNYYDSSGYYHYKYYGMAVWGQGTTVTVSSASTKGPSVFPLAPSSKSTSGGTAALGCLVKDYFPEPVTVSWNSGALTSGVHTFPAVLQSSGLYSLESVVTVPSSSLGTQTYICNVNHKPSNTKVDKKVEPKSCDKTHTCPPCPAPELLGGPSVFLFPPKPKDTLMISRTPEVTCVVVDVSHEDPEVKFNWYVDGVEVHNAKTKPCEEQYGSTYRCVSVLTVLHQDWLNGKEYKCKVSNKALPAPIEKTISKAKGQPREPQVYTLPPSRKEMTKNQVSLTCLVKGFYPSDIAVEWESNGQPENNYKTTPPVLKSDGSFFLYSKLTVDKSRWQQGNVFSCSVMHEALHNHYTQKSLSLSPGK
On to B5, for which the “% inhibition of human PAC1” value in assay [1] came out at 72%. In addition, the “% inhibition of human CGRPR” value in assay [2] turned out to be 73%.

B6: iPS:327698 (bispecific antibody, human IgG1, kappa, lambda, N297G)
light 1: EIVLTQSPATLSLSPGERATLSCRASQSVGRSLHWYQQKPGQAPRLLIKYASQSLSGIPARFSGSGSGTDFTLTISSLEPEDFAVYYCHQSSRLPFTFGEGTKVDIKRTVAAPSVFIFPPSDEQLKSGTASVVCLLNNFYPREAKVQWKVDNALQSGNSQESVTEQDSKDSTYSLESTLTLSKADYEKHKVYACEVTHQGLSSPVTKSFNRGEC
heavy 1: not shown
light 2: QSVLTQPPSVSAAPGQKVTISCSGSSSNIGNNYVSWYQQLPGTAPKLLIYDNNKRPSGIPDRFSGSKSGTSTTLGITGLQTGDEADYYCGTWDSRLSAVVFGKGTKLTVLGQPKANPTVTLFPPSSEELQANKATLVCLISDFYPGAVTVAWKADGSPVKAGVETTKPSKQSNNKYAAKSYLSLTPEQWKSHRSYSCQVTHEGSTVEKTVAPTECS
heavy 2: QVQLVESGGGVVQPGRSLRLSCAASGFTFSSFGMHWVRQAPGKELEWVAVISFDGSIKYSVDSVKGRFTISRDNSKNTLFLQMNSLRAEDTAVYYCARDRLNYYESSGYYHYKYYGMAVWGQGTTVTVSSASTKGPSVFPLAPSSKSTSGGTAALGCLVKDYFPEPVTVSWNSGALTSGVHTFPAVLQSSGLYSLESVVTVPSSSLGTQTYICNVNHKPSNTKVDKKVEPKSCDKTHTCPPCPAPELLGGPSVFLFPPKPKDTLMISRTPEVTCVVVDVSHEDPEVKFNWYVDGVEVHNAKTKPCEEQYGSTYRCVSVLTVLHQDWLNGKEYKCKVSNKALPAPIEKTISKAKGQPREPQVYTLPPSRKEMTKNQVSLTCLVKGFYPSDIAVEWESNGQPENNYKTTPPVLKSDGSFFLYSKLTVDKSRWQQGNVFSCSVMHEALHNHYTQKSLSLSPGK
Regarding B6, the “% inhibition of human PAC1” value in assay [1] is 96%. Further, the “% inhibition of human CGRPR” value in assay [2] stood at 90%.
